{
  "source": "paper PMC3871824",
  "about": "“In vitro binding of Sorghum bicolor transcription factors ABI4 and ABI5 to a conserved region of a GA 2-OXIDASE promoter: possible role of this interaction in the expression of seed dormancy”",
  "binders": {"B1": {"name": "SbGAMyb non-specific competitor 183 bp (dsDNA)", "DNA 1": "TCTGGGAAGAACCAACAACCATCGGTCCGAAGTTCAAGTTCTTCTGCTGGCACACCTTGTGAGACTACTACGGTGGTTAGCCCAGAGTTTGATATGGGCCAGGAATATTGGGAAGAACAGCCTGGTTCTTTCCTCAGTGAATATGCTCATTTTAGTGGAAATTCTTTGACCGAATCCACTCCT", "DNA 2": "AGGAGTGGATTCGGTCAAAGAATTTCCACTAAAATGAGCATATTCACTGAGGAAAGAACCAGGCTGTTCTTCCCAATATTCCTGGCCCATATCAAACTCTGGGCTAACCACCGTAGTAGTCTCACAAGGTGTGCCAGCAGAAGAACTTGAACTTCGGACCGATGGTTGTTGGTTCTTCCCAGA"}, "B2": {"name": "AtEm6 promoter probe 186 bp (dsDNA)", "DNA 1": "AGTTAAAGAACACGCGGCGAAGAAGTACGGCCACTACCACGTTCAAAGTATACGTCAGCTAATAAAGTCAGACACGTGGCATGTCACCAAGAAAGAAGAGCATACGTATGACGTACCGATTGTCCCTGAGTCACCACGTCGAACATCCACGATGCAACACAACCAAAACGCCCTCCGGATTGA", "DNA 2": "TCAATCCGGAGGGCGTTTTGGTTGTGTTGCATCGTGGATGTTCGACGTGGTGACTCAGGGACAATCGGTACGTCATACGTATGCTCTTCTTTCTTGGTGACATGCCACGTGTCTGACTTTATTAGCTGACGTATACTTTGAACGTGGTAGTGGCCGTACTTCTTCGCCGCGTGTTCTTTAACT"}, "B3": {"name": "SbGA2ox3 probe a (intact ABRE and CE) (dsDNA)", "DNA 1": "GGGCGCCGTGGGAAAACTGCTATTGGCCGGCGTGCCATCGCCTCGTATCGTATGCGTCTCCCATGGAGCCATGCATGCAGCGCGGCGGGCCGACCTGCCACCGGTGGATCGCGTCCGGACACGTCGCGCCC", "DNA 2": "GGGCGCGACGTGTCCGGACGCGATCCACCGGTGGCAGGTCGGCCCGCCGCGCTGCATGCATGGCTCCATGGGAGACGCATACGATACGAGGCGATGGCACGCCGGCCAATAGCAGTTTTCCCACGGCGCCC"}},
  "key": {"[1]": {"molecular_target": "T1, SbABI4 (rABI4) (Sorghum bicolor (inbred line IS9530), UniProt A0A1B6P7N1 1-257)", "T1 sequence (A0A1B6P7N1 entry or part of it)": "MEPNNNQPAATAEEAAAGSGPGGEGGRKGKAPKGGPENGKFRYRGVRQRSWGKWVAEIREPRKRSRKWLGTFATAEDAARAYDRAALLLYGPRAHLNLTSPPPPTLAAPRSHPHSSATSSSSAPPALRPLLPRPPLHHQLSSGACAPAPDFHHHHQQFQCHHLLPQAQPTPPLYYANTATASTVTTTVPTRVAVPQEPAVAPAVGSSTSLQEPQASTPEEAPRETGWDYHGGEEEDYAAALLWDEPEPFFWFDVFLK", "test": "competition; 200-600 ng vs 40 ng N1; no effect; 25 mM Tris-HCl pH 7.4, 30 mM KCl, 3 mM MgCl2, 0.5 mM EDTA, 14 mM 2-mercaptoethanol, 1 mM DTT, 10% glycerol, 0.05% NP-40, 10 ug/ml BSA, 50 ug/ml salmon sperm DNA, 40 ng probe, 30 min, room temperature", "conditions": "protein: recombinant; tags: C-terminal His (pET24a); blunt"}, "[2]": {"molecular_target": "T2, SbABI5 (rABI5) (Sorghum bicolor (inbred line IS9530), UniProt C5XSV4 1-346)", "T2 sequence": "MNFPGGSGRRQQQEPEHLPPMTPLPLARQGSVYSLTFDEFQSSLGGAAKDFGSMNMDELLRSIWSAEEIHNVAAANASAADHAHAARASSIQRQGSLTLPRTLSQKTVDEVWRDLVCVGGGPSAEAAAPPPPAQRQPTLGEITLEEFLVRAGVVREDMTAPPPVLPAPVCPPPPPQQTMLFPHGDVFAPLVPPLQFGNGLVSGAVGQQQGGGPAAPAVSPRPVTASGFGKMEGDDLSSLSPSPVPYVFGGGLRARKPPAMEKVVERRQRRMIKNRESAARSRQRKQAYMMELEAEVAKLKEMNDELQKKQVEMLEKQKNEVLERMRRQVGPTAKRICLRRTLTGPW", "test": "competition; 200-600 ng vs 40 ng N1; no effect; 25 mM Tris-HCl pH 7.4, 30 mM KCl, 3 mM MgCl2, 0.5 mM EDTA, 14 mM 2-mercaptoethanol, 1 mM DTT, 10% glycerol, 0.05% NP-40, 10 ug/ml BSA, 50 ug/ml salmon sperm DNA, 40 ng probe, 30 min, room temperature", "conditions": "protein: recombinant; tags: C-terminal His (pET24a); chain copies: 2; blunt"}, "[3]": {"molecular_target": "T1, SbABI4 (rABI4)", "test": "EMSA; five complexes; 25 mM Tris-HCl pH 7.4, 30 mM KCl, 3 mM MgCl2, 0.5 mM EDTA, 14 mM 2-mercaptoethanol, 1 mM DTT, 10% glycerol, 0.05% NP-40, 10 ug/ml BSA, 50 ug/ml salmon sperm DNA, 40 ng probe, 30 min, room temperature", "conditions": "protein: recombinant; tags: C-terminal His (pET24a); label: 5'-biotin on strand 1; blunt"}, "[4]": {"molecular_target": "T2, SbABI5 (rABI5)", "test": "EMSA; four complexes; 25 mM Tris-HCl pH 7.4, 30 mM KCl, 3 mM MgCl2, 0.5 mM EDTA, 14 mM 2-mercaptoethanol, 1 mM DTT, 10% glycerol, 0.05% NP-40, 10 ug/ml BSA, 50 ug/ml salmon sperm DNA, 40 ng probe, 30 min, room temperature", "conditions": "protein: recombinant; tags: C-terminal His (pET24a); chain copies: 2; label: 5'-biotin on strand 1; blunt"}, "[5]": {"molecular_target": "T2, SbABI5 (rABI5)", "test": "EMSA; 25 mM Tris-HCl pH 7.4, 30 mM KCl, 3 mM MgCl2, 0.5 mM EDTA, 14 mM 2-mercaptoethanol, 1 mM DTT, 10% glycerol, 0.05% NP-40, 10 ug/ml BSA, 50 ug/ml salmon sperm DNA, 40 ng probe, 30 min, room temperature", "conditions": "protein: recombinant; tags: C-terminal His (pET24a); chain copies: 2; label: 5'-biotin on strand 1; blunt"}, "[6]": {"molecular_target": "T1, SbABI4 (rABI4)", "test": "EMSA; additional retarded complex; 25 mM Tris-HCl pH 7.4, 30 mM KCl, 3 mM MgCl2, 0.5 mM EDTA, 14 mM 2-mercaptoethanol, 1 mM DTT, 10% glycerol, 0.05% NP-40, 10 ug/ml BSA, 50 ug/ml salmon sperm DNA, 40 ng probe, 30 min, room temperature", "conditions": "protein: recombinant; tags: C-terminal His (pET24a); label: 5'-biotin on strand 1; blunt"}},
  "data": [
    {"binder": "B1", "values": [
      {"measurement": "binding result", "setting": "[1]", "value": "no binding"},
      {"measurement": "binding result", "setting": "[2]", "value": "no binding"}
    ]},
    {"binder": "B2", "values": [
      {"measurement": "binding result", "setting": "[3]", "value": "binds"},
      {"measurement": "binding result", "setting": "[4]", "value": "binds"}
    ]},
    {"binder": "B3", "values": [
      {"measurement": "binding result", "setting": "[5]", "value": "binds"},
      {"measurement": "binding result", "setting": "[6]", "value": "binds"}
    ]}
  ]
}
